According to patent US20250034222:

Assay: SEC after Ni-NTA purification, area under monomer and dimer peaks

B1: WT IL-38 (residues 3-152, initiator methionine, C-terminal His6 tag) (protein)
chain: MSLPMARYYIIKYADQKALYTRDGQLLVGDPVADNCCAEKICILPNRGLARTKVPIFLGIQGGSRCLACVETEEGPSLQLEDVNIEELYKGGEEATRFTFFQSSSGSAFRLEAAAWPGWFLCGPAEPQQPVQLTKESEPSARTKFYFEQSW
For B1, the “% monomer upon purification” value was “WT IL-38 forms ˜20% dimer upon purification, ˜80% monomer”.
